Reference: the nanobody polyreactivity screen of Harvey et al. (2022)

Experiment: yeast display, Sf9 membrane polyspecificity reagent, FACS + sequencing; frameworks hold sequencing errors
In short: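 Galactose induction of a Saccharomyces cerevisiae BJ5465 synthetic nanobody display library ran 36–48 hours. The cells were then stained for 1 hour at 4 °C with 10% biotinylated, detergent-solubilized Sf9 membrane reagent, pulled down on streptavidin microbeads and FACS-sorted into low and high (top ~1%) gates on expression and reagent-binding fluorescence. Labels for polyreactivity follow the gate of origin.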

QVQLVESGGGLVQAGGSLRLSCDASGRTFIVYAMGWYRQEPGKERELVARISSGSRTSYADSVKGRFTISRDNAKNTVYLQMNSLKPEDTAVYYCNAREYLKPGVPYYSQQLDYWGQGTQVTVSS
polyreactivity (PSR sort gate): low polyreactivity

QVQLVESGGGLVQAGGSLRLSCAASGSTFYVYAMGWYRQAPGKERELVAVIRYRGDRTYYADSVKGRFTISRDNAKNTVYLQMNSLKPEDTAVYYCAKEGFYKYYWGQGTQVTVSS
polyreactivity (PSR sort gate): high polyreactivity

QVQLVESAGGLVQAGGSLRLSCAASGRIFSPYAMGWYRQAPGKERELVAAIDWDGGGTYYADSVKGRFTISRDNAKNTVYLQMNSLKPEDTAVYYCAAETDLANGTSPSDYWGQGTQVTVSS
polyreactivity (PSR sort gate): low polyreactivity

QVQLVESGGGLVQAGGSLRLSCAASGFTFRGYAMGWYRPAPGKERELVAAIRGGGGRTYYADSVKGRFTISRDNAKNTVYLQMNSLKPEDTAVYYCAKVVSIRNDEYDYWGQGTQVTVSS
polyreactivity (PSR sort gate): high polyreactivity

QVQLVESGGGLVQAGGSLSLSCAAMGWYRQAPGKERELVATITWSGGSTYYADSVKGRFTISRDNAKNPVYLQMNSLKPEDTAVYYCNARATLLSPANTIRGYDYWGQGTQVTVSS
polyreactivity (PSR sort gate): low polyreactivity

GSTIYADSVKGRFTISRDNAKNTVYLQMNSLKPEDTAVYYCNKDDRNDRTIPGYDPEYDYWGQGTQVTVSS
polyreactivity (PSR sort gate): low polyreactivity

QVQLVESGGGLVQAGGILRLSCAASGSTFPFYAMGWYRQAPGKVRELVASINSDGSTNYADSVKGRFTISRDNAKNTVYLQMNSLKPEDTAVYYCAAGWQTRFYSRYYYWGQGTQVTVSS
polyreactivity (PSR sort gate): high polyreactivity

QVQLVESGGGLVQAAGSLRLSCAASGRTFSGYAMGWYRQAPGKERELVAAIRWSGGSTYYADSVKGRFTISRDNAKNTVYLQMNSLKPEDTAVYYCATRDYYYRYGYWGQGTQVTVSS
polyreactivity (PSR sort gate): high polyreactivity

QVQLVESGGGLVQAGGSLRLSCAASGTYTNAMGWYRQAPGKERELVAAITSSGGSTYYADSVKGRFTISRDNAKNTVYLQMNSLKPEDTAVYYCAKPGVYEVSYTYGYWGQGTQVTVSS
polyreactivity (PSR sort gate): low polyreactivity

QVQLVESVGGLVQAGGSLRLSCAASGGKFISYAMGRYRQAPRKERELVAAITSSGGSTYDADSVKGRFTISRDDAKNTVYLQMNSLKPEDTGVYYCAADHSTVLDVGSWGQGTQVTVSS
polyreactivity (PSR sort gate): low polyreactivity

QVQLVESGGGLVQAGGSLRLSCAASGSTLSDYAMGWYRQAPGKERELVAAISTSGGRTYYADSVKGRFTISRDNAKNTVYLQMNSLKPEDTAVYYCAVDHYSSYEYWGQGTQVSVSS
polyreactivity (PSR sort gate): low polyreactivity

QVQLVESGGGLVQAGGSLRLSCAASGFTFYYNAMGWYRQAPGKERELVAVISSSGSRTYYADSVKGRFTISRYNAKNTVYLQMNSLKPEDTAVYYCAAARIGTRDYWGQGTQVSVSS
polyreactivity (PSR sort gate): high polyreactivity

QVQLVESGGGLVQAGGSLRLSCAASGLIFYTYAMGWYRQAPGIERELVATISKRDGGTYYADSVKGRFTISRDNAKNTVYLQMNSLKPEDTAVYYCDAERSYSYWAYDYWGQGTQVTVSS
polyreactivity (PSR sort gate): high polyreactivity

QVQLVESGGGLVQAGGSLRVSCAASGSIFPDNAMGWYRQAPGKERELVAAITRGGSTYYADSVKGRFTISRDNAKNTVYLQMNSLKPEDTAVYYCAARRRYLWSYDYWGQGTQVTVSS
polyreactivity (PSR sort gate): high polyreactivity

QVQLEESGGGLVQAGGSLRLSCAATGGTFRDNVMGWYRQAPGKERELVAAISRNGGSTYYADTVKGRFTISRDNAKNTVYLQMTSLKPEDTAVYYCAARHLSAGGYYWGQGTQVTVSS
polyreactivity (PSR sort gate): high polyreactivity

QVHLVESGGGLVQAGGSLRLSCAASGIILYRNAMGWYRQAPGKERELVAAITNTGSRTYYADSVKGRFTISRDNAKNTVYLQMTSLKPEDTAVYYCAAYYYYSAYGDDYWGQGTQVTVSS
polyreactivity (PSR sort gate): high polyreactivity

QVQLEESGGGLVQAGGSLRLSCAASGFNFWVYAMGWYRQAPGKERELVAAISYNGGRTYYADSVKGRFTISRDNAKNTVYLQMNSLKPEDTAVYYCASLPAPTGRGDYWGQGTQVTVSS
polyreactivity (PSR sort gate): high polyreactivity

QVQLVESGRGLVQAGGSLRLSCAASGRIFSTYAMGWYRQAPGKERELVAAISWRGSSTYYADSVKGRFTISRDNAKNTVYLQMNSLKPEDPAVYYCNADKANRYDWGQGTQVTVSS
polyreactivity (PSR sort gate): high polyreactivity

QVQLVESGGGLVQAGGSLRLSCAASGIIFLYNDMGGYRHAPGKEREFVATISRSGGSTYYADSVKGRFTISRDNAKNTVYLQMNSLKPEDTAVYYCAADEDSGYGYWGQGTQVTVSS
polyreactivity (PSR sort gate): low polyreactivity

QVQLVESGGGLVQAGGSLRLSCAASGSTFARNAMGWYRQAPGKERELVAAISSSGGRTYYADSVKGRFTISRDNAKNTVYLQMNSLKPEDTAVYSCAARTFGSVHSYRGGYWGQGTQVTVSS
polyreactivity (PSR sort gate): high polyreactivity

QVQLVESGGGLDQAGGSLRLSCAASGITFGRNTMGWYRQAPGQERELVAAIDSGGNTYADSVKGRFTISRDNAKNTVYLQMNCLKPEDTAVYYCAVDGGEFSSYGYWGQGTQVTVSS
polyreactivity (PSR sort gate): low polyreactivity

QVQLVESGGGLVQAGCSLRLSCAASGRTFYRYTMGWYRQAPGKERELVAAISISGGSTYYSDSVKGRFTISRDNEKNTFYLQMNSLKPEDSAVYYCAATSWGTYYRRLYYWGQATQVTVSS
polyreactivity (PSR sort gate): high polyreactivity

QVQLVESGGGLVQAGGSLRLSCAASGRIFYVNVMGWYRQAPGKERELVAAIYWSDGSTYYADSVKGRFTISRDNAKNTVYLQMNSLKPEDTAVYYCNRRGPYGYKAWAIGTIGDLDYWGQGTQVTVSS
polyreactivity (PSR sort gate): low polyreactivity

QDQLVESGGGLVQAGGSLRLSCAASGLTFFYYAMGWSRQSPGKERELVAAISRGGSTYYADSVKGRFTISRDHAKYTVYLQMKSLNPEDTAVYYCAAKTYQKEIVRPMYYWGQGTQVTVSS
polyreactivity (PSR sort gate): high polyreactivity

QVQLVESGGGLVQAGGSLRLSCAASGYIFHRYAMGWYRQAPGKEREFVAAIRWSGGSTYYADSVKGRFTISRDNAKNTVYLQMNSLKPEDTAVYYCAADKYVLGYYYGQYDYWGQGTQVTVSS
polyreactivity (PSR sort gate): low polyreactivity

QVQLVESGGGLVQAGGSLRLSCAASGRTFDFYAMGWYRQAPGKERELDAAITFSTGSTTYADSVKGRFTISRDNAKNTVYLQMNSLKPEDTAVYYCNAYLYRKFGYRAYDYWGQGTQVTVSS
polyreactivity (PSR sort gate): low polyreactivity

QVQLVESGGGLVQAGGSLRLRCAASGSTFGRNTMGWYRQAPGKERELVAAISKSGGYTRYADSVKGRFTISRDNAKNTVYLQMNSLKPEDTAVYYCAARVYSLGYGGDYWGQGTQVTVSS
polyreactivity (PSR sort gate): high polyreactivity

QVQLVESGGGLVQAGGSLRLSCAASGSIIGSYAMGWYRQAPGKERELVAAINSGGSTNYADSVKGRFTISRDNAKNTVYLQMNSLKPEDTAVYYCASRQVYKFRRYDYWGQGTQVTVSS
polyreactivity (PSR sort gate): high polyreactivity

QVQLVESGGGLVQAGGSLRLSCAASGSTFYVYVMGGYRQAPGKERELVAAITSSGDITYYADSVKGRFTISRYNAKITVYLQMNSLIPEETAVYYCAASPFRRRYNGENDYWGQGTQVTGSS
polyreactivity (PSR sort gate): high polyreactivity

QVQLVESGGGLFQAGGSLRLSCAASGSTFKFNAMGWYRQAPGKEWELVAAISNRGGTTYYADSVKGRFTISRDNAKNTVYLLMNSLKQEDTAVYYCAAGRVQYYYFWGQGTQVTVSS
polyreactivity (PSR sort gate): high polyreactivity

QVHLVESGGGLVQAGGSLRLSFDASGRIFYRNVMGWYRQAPGKERELVATITWGGSTYYADSVKGRFTISRYNEKNTVYLQMNSLKPEDTAVYYCATVRSRLFGQYYYWGQGTQVTVTS
polyreactivity (PSR sort gate): high polyreactivity

QVPLQVSGGYLVQAGGSVRLSCAASGTIYGLTALGWYRQAPGKEREFVAAITDGGNTNYADSVKGRFTISRDNAKNTVYLQMLSLKPEDTAVYYCAVLFSDDAYYAYWGQGTQVTVSS
polyreactivity (PSR sort gate): low polyreactivity

QVQLVESGGGLVQAGGSLRLSCAASGFIFVYYAMGWYRQAPGKERELVAAITSDVNTYYADSVKGRFTISRDNAKNTVYLQMNSLKPEDTAVYYCNADADDYRDYQDYDYWGQGTQVTVSS
polyreactivity (PSR sort gate): low polyreactivity

QVQLVESGGGLVQAGGSLRLTCSASGYTFPRYAMGWYRQAPGKERELVAVITRRGGSTYYADSVKGRFTISRDNAKNTVYLQMNSLKPEDTSVYYCAASDPSNKSSRPGYSYDSDSWGQGTQVTVSS
polyreactivity (PSR sort gate): high polyreactivity

QVQLVESGGGLVQAGGSLRLSCAASGRIFSYYAMGWYRQAPGKERELVATISGSGGSTYYADSVKGRFTNSRDNAKNNVYLQMNSLKPEDTAVYYCAARRSGRTRYYWGQGTQVTVSS
polyreactivity (PSR sort gate): high polyreactivity

QVQLVESGGGLVQAGGSLRLSCAATGSTFAKYAMCSYRQAPGKERELVASISGSGGSTYYADSVKGRFTISRDNAKNTFYLQMNSLIPEDTAVYYSAARRYVWYYWGQGTQVTVSW
polyreactivity (PSR sort gate): high polyreactivity

QVQLLESGGGLDQARGSLRLSCAASGITFEYNAMGWYRQAPGKERELVAAISLSSGSTYYADSVKGRFTISRDNAKNTVYLQMNSLKPEDTAVYYGNADTIIYEGGYWGQGTQVTVSS
polyreactivity (PSR sort gate): low polyreactivity

QVQLVESGGGLVQAGGSLRLSCAASGIIFGYYAMGWYRQATGKERELVAAINGRTGSTYYADSVKGRFTISRDNAKNTVYLQMNSLKPEDTAVYYCTAQSYKFHGDYWGQGTQVTVSS
polyreactivity (PSR sort gate): high polyreactivity

QVQLVESGGGLVQAGGSLRLSCAATGITFQPYTMGWYRQAPGKERELVASISIRGSRTYYADSVKGRFTISRDNAKNTVYLQMNSLKPEDTAVYYCNAPYNHVWAHSYWYDYWGQGTQVTVSS
polyreactivity (PSR sort gate): high polyreactivity

QVQIVDSGVGLVQAGGSLRLSCAASGSIFKYNAKGWYREAPGKVRELVAAIRWSGVGTRYADSVKGRFTISRVNAKNTVYLQMNSLKPEDTAVYSCAARYGRHRVSCYATWRYGYWGQGTQVTVSS
polyreactivity (PSR sort gate): low polyreactivity

QVQLVESRGRLVQAVGSLRLSCAASGFTFDSYPMGWYRHAPRKEMEFVAGITDLGDYTYYADSVKGRFTISRDTAKNTVFLQMKSLKPEDTEVYYCNDTTGYKHAWRCENGYWGQGTQVTVSS
polyreactivity (PSR sort gate): low polyreactivity

QVQLVESGGGLVQAGCSLRLSCAASGSTFRYYAMGWYRQAPGKERELVAAINRSGGSTYYADSVKGRFTISRDNAKNTVYLQMYSLKPEDTAVYYCAAPWARHYSNPDDYWGQGTQVTVSS
polyreactivity (PSR sort gate): high polyreactivity

QVQLVESGGGLVQAGGSLRLSCAASGSTFYTYVMGWYRQAPGKERELVAAISSGGGNTYYADSVKGRFTISRDNAKYTVYLQMNSLKPEDTAVYYCAASHTSYYLRYGYWGQGTQVTVSS
polyreactivity (PSR sort gate): high polyreactivity
